“Also recorded” adds a separate entry of the source. Where two headings read alike, the source gives them in different places.
What was measured:
[1] = Glucose responsiveness in C57BL/6 mice with or without α-methylmannose; assay type: in vivo
Method: FIG. 40A, FIG. 40B, FIG. 40C, and FIG. 40D show in vivo activity of insulin B:P28N des(B30) analogues with an N-glycan attached to position B28. C57BL/6 mice at 12 weeks of age were fasted two hours before dosed with insulin des(B30) analogues with GS2.1 or GS5.0 N-glycan compositions by s.c injection. The effect on blood glucose was determined as a function of time in the absence and presence of α-methylmannose. FIG. 40A: vehicle; FIG. 40B: GS5.0; FIG. 40C: GS2.1; and FIG. 40D: summarizes the results.
To study the glucose responsiveness of the GS2.1 and GS5.0 insulin analogues, C57BL/6 mice at 12 weeks of age were fasted two hours before dosed with GS2.1 or GS5.0 by s.c injection. At the same time, animals received i.p. administration of α-methylmannose solution (21.5% w/v in saline, 10 ml/kg) or vehicle. […] Blood glucose was measured using a glucometer (OneTouch Ultra LifeScan; Milpitas, Calif.) at time 0 and then 30, 60, 90, and 120 minutes post injection. Glucose Area-Over-the-Curve (AOC) was calculated using values normalized to glucose of time 0 (as 100%).

[2] = mouse, in vivo
[3] = Glucose levels during mouse ITT; assay type: in vivo
[4] = biological target: T1, insulin receptor (IR) (Homo sapiens, UniProt P06213); assay: In vitro insulin receptor phosphorylation / IR signaling assay (FIG. 5C); assay type: cell-based
Excerpt: (§1) FIG. 5A, FIG. 5B, FIG. 5C, and FIG. 5D show[s] in vitro activities of the two N-glycosylated insulin analogues at the insulin and insulin-like growth factor (IGF-1) receptors.
(§2) N-glycans provide a means for modulating IR binding. […] The sialylated N-glycans extended the PK of the insulin relative to insulin analogues having non-sialylated N-glycans. However, the extended PK is balanced by the reduced binding at the IR. […] In light of the examples shown herein, modulating insulin-IR interactions can be accomplished by providing glycosylated insulin analogues in which one or more N-glycans have been added to the molecule by N-linked glycosylation in vivo or by attaching one or more of the N-glycans to the insulin molecule in vitro or a combination of both.

[5] = Circulating insulin analogue levels during insulin tolerance test (ITT); conditions: FIG. 3A/3B
[6] = biological target: IGF-1R (Homo sapiens, UniProt P08069); assay: IGF-1 receptor binding (FIG. 5B)
Excerpt: as §1
Published studies have shown insulin to have a reduced interaction with IGF-1R when it contains a net negative charge at the end of the B-chain (Slieker et al., op. cit.). Therefore, we hypothesized that an N-glycosylated insulin analogue having sialic acid terminated-N-glycans would have reduced IGF-1R binding.

[7] = biological target: T1, insulin receptor (IR); assay: In vitro insulin receptor binding (FIG. 5A)
Excerpt: as §1, §2

Substance	Percent glucose AOC in the presence and absence of α-methylmannose ([1]; AOC normalized to glucose at time 0)	Blood glucose lowering, dosed alone ([1]; s.c., i.p. vehicle, 0-120 min, GS5.0 at 18 nmol/kg)	Blood glucose lowering in the presence of α-methylmannose ([1]; s.c., i.p. α-methylmannose 21.5% w/v, 10 ml/kg)	AUC of circulating insulin analogue levels [2]	In vivo glucose-lowering activity ([3]; FIG. 4)	In vitro IR signaling activity [4]	AUC of circulating insulin analogue levels [5]	AUC of circulating insulin analogue levels ([5]; listed as sialic acid-terminated glycoform)	IGF-1R binding affinity [6]	In vivo glucose-lowering activity ([3]; FIG. 4, listed as sialic acid-terminated glycoform)	In vitro IR binding [7]
GS5.0: insulin heterodimer, native A-chain, des(B30) B:P28N B-chain, Asn28 attached to a G2 N-glycan (SEQ ID NO:295)	no change was detected	lowered glucose during 120 min study period	no detectable additional effect on glucose lowering	statistically significant improvements in AUC relative to mature NOVOLIN	retained activity at the insulin receptor						
GS6.0: insulin heterodimer, native A-chain, des(B30) B:P28N B-chain, Asn28 attached to an A2 N-glycan (SEQ ID NO:294)						reduced activity	statistically significant improvements in AUC relative to mature NOVOLIN	even greater AUC measurements relative to the galactose-terminated glycoform	interacts with IGF-1R with even less affinity than NOVOLIN	retained activity at the insulin receptor; also recorded: longest glucose-lowering activity of all des(B30) samples	reduced binding activity to IR
